Laboratory results from patent publication US20140087995A1 (published 2014).
Numbered stars: 1 amine (or outer) side, 2 acyl side, 3 side chain; on linkers, the order of the positions; unused ones are H or OH. Bridge positions count the residues as written; N and C are the ends. Side chains are listed from the residue outwards. Ends that are not written are not given here. * marks the point of attachment. C20 diacid = O=C(O)CCCCCCCCCCCCCCCCCCC(=O)*; γGlu = O=C(O)[C@H](CCC(=O)[*:2])N[*:1]; AEEA = NCCOCCOCC(=O)O

T1: human amylin receptor (amylin 3(a) receptor: human calcitonin receptor plus RAMP-3) (human, UniProt P30988 25-474; O60896 24-148, limits assumed)
T1 sequence (looked up) 1: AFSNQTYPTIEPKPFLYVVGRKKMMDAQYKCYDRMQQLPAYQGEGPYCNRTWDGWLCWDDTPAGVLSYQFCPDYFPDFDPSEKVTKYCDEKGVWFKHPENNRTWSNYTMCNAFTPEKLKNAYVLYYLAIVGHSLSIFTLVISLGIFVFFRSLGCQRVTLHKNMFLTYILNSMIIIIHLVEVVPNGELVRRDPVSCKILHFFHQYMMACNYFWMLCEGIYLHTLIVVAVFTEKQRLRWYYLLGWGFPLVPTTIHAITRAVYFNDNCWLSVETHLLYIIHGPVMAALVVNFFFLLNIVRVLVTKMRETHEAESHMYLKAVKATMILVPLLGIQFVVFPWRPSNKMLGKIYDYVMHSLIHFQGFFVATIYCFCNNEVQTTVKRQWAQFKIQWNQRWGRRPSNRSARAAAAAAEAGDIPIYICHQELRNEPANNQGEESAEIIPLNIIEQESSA
T1 sequence (looked up) 2: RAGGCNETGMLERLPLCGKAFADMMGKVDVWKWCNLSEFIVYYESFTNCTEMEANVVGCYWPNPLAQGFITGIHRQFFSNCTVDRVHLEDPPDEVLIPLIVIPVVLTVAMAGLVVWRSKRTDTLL

T2: human calcitonin receptor (human, UniProt P30988 25-474)
T2 sequence (looked up): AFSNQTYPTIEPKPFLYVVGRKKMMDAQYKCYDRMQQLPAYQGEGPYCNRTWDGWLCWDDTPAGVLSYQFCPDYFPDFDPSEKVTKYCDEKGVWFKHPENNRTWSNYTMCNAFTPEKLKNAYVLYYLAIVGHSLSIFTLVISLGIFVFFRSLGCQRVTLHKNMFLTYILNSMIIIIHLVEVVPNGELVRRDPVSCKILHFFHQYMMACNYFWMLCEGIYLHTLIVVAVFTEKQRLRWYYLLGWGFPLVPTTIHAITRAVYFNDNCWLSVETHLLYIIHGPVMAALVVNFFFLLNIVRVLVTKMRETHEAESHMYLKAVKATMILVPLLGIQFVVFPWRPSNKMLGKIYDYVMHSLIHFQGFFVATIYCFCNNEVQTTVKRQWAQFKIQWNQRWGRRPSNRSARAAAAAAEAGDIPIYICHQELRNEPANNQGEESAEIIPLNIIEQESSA


Tests used:
[1] = molecular target: T1, human amylin receptor (amylin 3(a) …); experiment: cell-based or functional assay
[2] = molecular target: T2, human calcitonin receptor; experiment: cell-based or functional assay

Binder | hAmylin-R funct. EC50 [1] | Ratio hCT/hAmylin funct. (hCTR EC50 against hAmylin-R EC50) [2] | hCTR funct. EC50 [2]
{C20 diacid-γGlu}-KCNTATCATQRLANFLRHSSPNFGAIPSSTPVGSETY-NH2 (disulfide 2-7; SMILES CC[C@H](C)[C@H](NC(=O)[C@H](C)NC(=O)CNC(=O)[C@H](Cc1ccccc1)NC(=O)[C@H](CC(N)=O)NC(=O)[C@@H]1CCCN1C(=O)[C@H](CO)NC(=O)[C@H](CO)NC(=O)[C@H](Cc1c[nH]cn1)NC(=O)[C@H](CCCNC(=N)N)NC(=O)[C@H](CC(C)C)NC(=O)[C@H](Cc1ccccc1)NC(=O)[C@H](CC(N)=O)NC(=O)[C@H](C)NC(=O)[C@H](CC(C)C)NC(=O)[C@H](CCCNC(=N)N)NC(=O)[C@H](CCC(N)=O)NC(=O)[C@@H](NC(=O)[C@H](C)NC(=O)[C@@H]1CSSC[C@H](NC(=O)[C@H](CCCCN)NC(=O)CC[C@H](NC(=O)CCCCCCCCCCCCCCCCCCC(=O)O)C(=O)O)C(=O)N[C@@H](CC(N)=O)C(=O)N[C@@H]([C@@H](C)O)C(=O)N[C@@H](C)C(=O)N[C@@H]([C@@H](C)O)C(=O)N1)[C@@H](C)O)C(=O)N1CCC[C@H]1C(=O)N[C@@H](CO)C(=O)N[C@@H](CO)C(=O)N[C@H](C(=O)N1CCC[C@H]1C(=O)N[C@H](C(=O)NCC(=O)N[C@@H](CO)C(=O)N[C@@H](CCC(=O)O)C(=O)N[C@H](C(=O)N[C@@H](Cc1ccc(O)cc1)C(N)=O)[C@@H](C)O)C(C)C)[C@@H](C)O, also called compound 28) | 220 pM | 9.2 | 2030 pM
K([AEEA-AEEA-γGlu-C20 diacid])CNTATCATQRLANFLRHSSPNFGAIPSSTNVGSETY-NH2 (disulfide 2-7; N-terminus assumed; SMILES CC[C@H](C)[C@H](NC(=O)[C@H](C)NC(=O)CNC(=O)[C@H](Cc1ccccc1)NC(=O)[C@H](CC(N)=O)NC(=O)[C@@H]1CCCN1C(=O)[C@H](CO)NC(=O)[C@H](CO)NC(=O)[C@H](Cc1c[nH]cn1)NC(=O)[C@H](CCCNC(=N)N)NC(=O)[C@H](CC(C)C)NC(=O)[C@H](Cc1ccccc1)NC(=O)[C@H](CC(N)=O)NC(=O)[C@H](C)NC(=O)[C@H](CC(C)C)NC(=O)[C@H](CCCNC(=N)N)NC(=O)[C@H](CCC(N)=O)NC(=O)[C@@H](NC(=O)[C@H](C)NC(=O)[C@@H]1CSSC[C@H](NC(=O)[C@@H](N)CCCCNC(=O)COCCOCCNC(=O)COCCOCCNC(=O)CC[C@H](NC(=O)CCCCCCCCCCCCCCCCCCC(=O)O)C(=O)O)C(=O)N[C@@H](CC(N)=O)C(=O)N[C@@H]([C@@H](C)O)C(=O)N[C@@H](C)C(=O)N[C@@H]([C@@H](C)O)C(=O)N1)[C@@H](C)O)C(=O)N1CCC[C@H]1C(=O)N[C@@H](CO)C(=O)N[C@@H](CO)C(=O)N[C@H](C(=O)N[C@@H](CC(N)=O)C(=O)N[C@H](C(=O)NCC(=O)N[C@@H](CO)C(=O)N[C@@H](CCC(=O)O)C(=O)N[C@H](C(=O)N[C@@H](Cc1ccc(O)cc1)C(N)=O)[C@@H](C)O)C(C)C)[C@@H](C)O, also called compound 25) | 217 pM | 46.2 | 10000 pM
{C20 diacid-γGlu}-KCNTATCATQRLAEFLRHSSPNFGAIPSSTNVGSRTY-NH2 (disulfide 2-7; SMILES CC[C@H](C)[C@H](NC(=O)[C@H](C)NC(=O)CNC(=O)[C@H](Cc1ccccc1)NC(=O)[C@H](CC(N)=O)NC(=O)[C@@H]1CCCN1C(=O)[C@H](CO)NC(=O)[C@H](CO)NC(=O)[C@H](Cc1c[nH]cn1)NC(=O)[C@H](CCCNC(=N)N)NC(=O)[C@H](CC(C)C)NC(=O)[C@H](Cc1ccccc1)NC(=O)[C@H](CCC(=O)O)NC(=O)[C@H](C)NC(=O)[C@H](CC(C)C)NC(=O)[C@H](CCCNC(=N)N)NC(=O)[C@H](CCC(N)=O)NC(=O)[C@@H](NC(=O)[C@H](C)NC(=O)[C@@H]1CSSC[C@H](NC(=O)[C@H](CCCCN)NC(=O)CC[C@H](NC(=O)CCCCCCCCCCCCCCCCCCC(=O)O)C(=O)O)C(=O)N[C@@H](CC(N)=O)C(=O)N[C@@H]([C@@H](C)O)C(=O)N[C@@H](C)C(=O)N[C@@H]([C@@H](C)O)C(=O)N1)[C@@H](C)O)C(=O)N1CCC[C@H]1C(=O)N[C@@H](CO)C(=O)N[C@@H](CO)C(=O)N[C@H](C(=O)N[C@@H](CC(N)=O)C(=O)N[C@H](C(=O)NCC(=O)N[C@@H](CO)C(=O)N[C@@H](CCCNC(=N)N)C(=O)N[C@H](C(=O)N[C@@H](Cc1ccc(O)cc1)C(N)=O)[C@@H](C)O)C(C)C)[C@@H](C)O, also called compound 16) | 363 pM | 6.1 | 2220 pM
{C20 diacid-γGlu}-KCNTATCATQRLAEFLRHSSPNFGAIPSSTPVGSNTY-NH2 (disulfide 2-7; SMILES CC[C@H](C)[C@H](NC(=O)[C@H](C)NC(=O)CNC(=O)[C@H](Cc1ccccc1)NC(=O)[C@H](CC(N)=O)NC(=O)[C@@H]1CCCN1C(=O)[C@H](CO)NC(=O)[C@H](CO)NC(=O)[C@H](Cc1c[nH]cn1)NC(=O)[C@H](CCCNC(=N)N)NC(=O)[C@H](CC(C)C)NC(=O)[C@H](Cc1ccccc1)NC(=O)[C@H](CCC(=O)O)NC(=O)[C@H](C)NC(=O)[C@H](CC(C)C)NC(=O)[C@H](CCCNC(=N)N)NC(=O)[C@H](CCC(N)=O)NC(=O)[C@@H](NC(=O)[C@H](C)NC(=O)[C@@H]1CSSC[C@H](NC(=O)[C@H](CCCCN)NC(=O)CC[C@H](NC(=O)CCCCCCCCCCCCCCCCCCC(=O)O)C(=O)O)C(=O)N[C@@H](CC(N)=O)C(=O)N[C@@H]([C@@H](C)O)C(=O)N[C@@H](C)C(=O)N[C@@H]([C@@H](C)O)C(=O)N1)[C@@H](C)O)C(=O)N1CCC[C@H]1C(=O)N[C@@H](CO)C(=O)N[C@@H](CO)C(=O)N[C@H](C(=O)N1CCC[C@H]1C(=O)N[C@H](C(=O)NCC(=O)N[C@@H](CO)C(=O)N[C@@H](CC(N)=O)C(=O)N[C@H](C(=O)N[C@@H](Cc1ccc(O)cc1)C(N)=O)[C@@H](C)O)C(C)C)[C@@H](C)O, also called compound 31) | 112 pM | 6.4 | 717 pM
{C20 diacid-γGlu}-KCNTATCATQRLAHFLRHSSPNFGAIPSSTNVGSETY-NH2 (disulfide 2-7; SMILES CC[C@H](C)[C@H](NC(=O)[C@H](C)NC(=O)CNC(=O)[C@H](Cc1ccccc1)NC(=O)[C@H](CC(N)=O)NC(=O)[C@@H]1CCCN1C(=O)[C@H](CO)NC(=O)[C@H](CO)NC(=O)[C@H](Cc1c[nH]cn1)NC(=O)[C@H](CCCNC(=N)N)NC(=O)[C@H](CC(C)C)NC(=O)[C@H](Cc1ccccc1)NC(=O)[C@H](Cc1c[nH]cn1)NC(=O)[C@H](C)NC(=O)[C@H](CC(C)C)NC(=O)[C@H](CCCNC(=N)N)NC(=O)[C@H](CCC(N)=O)NC(=O)[C@@H](NC(=O)[C@H](C)NC(=O)[C@@H]1CSSC[C@H](NC(=O)[C@H](CCCCN)NC(=O)CC[C@H](NC(=O)CCCCCCCCCCCCCCCCCCC(=O)O)C(=O)O)C(=O)N[C@@H](CC(N)=O)C(=O)N[C@@H]([C@@H](C)O)C(=O)N[C@@H](C)C(=O)N[C@@H]([C@@H](C)O)C(=O)N1)[C@@H](C)O)C(=O)N1CCC[C@H]1C(=O)N[C@@H](CO)C(=O)N[C@@H](CO)C(=O)N[C@H](C(=O)N[C@@H](CC(N)=O)C(=O)N[C@H](C(=O)NCC(=O)N[C@@H](CO)C(=O)N[C@@H](CCC(=O)O)C(=O)N[C@H](C(=O)N[C@@H](Cc1ccc(O)cc1)C(N)=O)[C@@H](C)O)C(C)C)[C@@H](C)O, also called compound 30) | 134 pM |  | 1680 pM
K([AEEA-C20 diacid])CNTATCATQRLANFLRHSSPNFGAIPSSTNVGSNTY-NH2 (disulfide 2-7; N-terminus assumed; SMILES CC[C@H](C)[C@H](NC(=O)[C@H](C)NC(=O)CNC(=O)[C@H](Cc1ccccc1)NC(=O)[C@H](CC(N)=O)NC(=O)[C@@H]1CCCN1C(=O)[C@H](CO)NC(=O)[C@H](CO)NC(=O)[C@H](Cc1c[nH]cn1)NC(=O)[C@H](CCCNC(=N)N)NC(=O)[C@H](CC(C)C)NC(=O)[C@H](Cc1ccccc1)NC(=O)[C@H](CC(N)=O)NC(=O)[C@H](C)NC(=O)[C@H](CC(C)C)NC(=O)[C@H](CCCNC(=N)N)NC(=O)[C@H](CCC(N)=O)NC(=O)[C@@H](NC(=O)[C@H](C)NC(=O)[C@@H]1CSSC[C@H](NC(=O)[C@@H](N)CCCCNC(=O)COCCOCCNC(=O)CCCCCCCCCCCCCCCCCCC(=O)O)C(=O)N[C@@H](CC(N)=O)C(=O)N[C@@H]([C@@H](C)O)C(=O)N[C@@H](C)C(=O)N[C@@H]([C@@H](C)O)C(=O)N1)[C@@H](C)O)C(=O)N1CCC[C@H]1C(=O)N[C@@H](CO)C(=O)N[C@@H](CO)C(=O)N[C@H](C(=O)N[C@@H](CC(N)=O)C(=O)N[C@H](C(=O)NCC(=O)N[C@@H](CO)C(=O)N[C@@H](CC(N)=O)C(=O)N[C@H](C(=O)N[C@@H](Cc1ccc(O)cc1)C(N)=O)[C@@H](C)O)C(C)C)[C@@H](C)O, also called compound 43) [N^ε1-[2-[2-[2-(19-carboxynonadecanoylamino)ethoxy]ethoxy]acetyl]-[Arg17,Pro21,Pro27]-h-amylin] | 141 pM | 6.5 | 920 pM
